{"source": "the Human Domainome abundance scans (Beltran et al. 2025)", "parents": {"B1": {"name": "Telomeric repeat-binding factor 2, residues 489 to 542; numbered along this chain, Q15554 (parent)", "chain": "KQKWTVEESEWVKAGVQKYGEGNWAAISKNYPFVNRTAVMIKDRWRTMKRLGMN"}}, "note": "± gives the uncertainty stated by the source."}
{"variants_of": "B1", "assay": "abundance fitness (aPCA) (normalised: wild type 0, dead -1); higher = more abundant; growth selection in yeast, the domain comes from the species named", "details": "Homo sapiens"}
{"variant": "W45K", "abundance fitness": "-1.09 ± 0.14"}
{"variant": "W45L", "abundance fitness": "-0.815 ± 0.087"}
{"variant": "W45Q", "abundance fitness": "-0.914 ± 0.094"}
{"variant": "W45R", "abundance fitness": "-0.953 ± 0.16"}
{"variant": "W45S", "abundance fitness": "-0.933 ± 0.18"}
{"variant": "W45T", "abundance fitness": "-0.986 ± 0.19"}
{"variant": "W45V", "abundance fitness": "-0.866 ± 0.089"}
{"variant": "W45Y", "abundance fitness": "-0.318 ± 0.1"}
{"variant": "R46A", "abundance fitness": "0.106 ± 0.069"}
{"variant": "R46C", "abundance fitness": "-0.133 ± 0.076"}
{"variant": "R46D", "abundance fitness": "-0.195 ± 0.13"}
{"variant": "R46E", "abundance fitness": "0.204 ± 0.09"}
{"variant": "R46F", "abundance fitness": "0.073 ± 0.067"}
{"variant": "R46H", "abundance fitness": "0.011 ± 0.12"}
{"variant": "R46I", "abundance fitness": "0.015 ± 0.12"}
{"variant": "R46K", "abundance fitness": "-0.007 ± 0.2"}
{"variant": "R46L", "abundance fitness": "0.054 ± 0.049"}
{"variant": "R46M", "abundance fitness": "0.325 ± 0.089"}
{"variant": "R46N", "abundance fitness": "0.047 ± 0.17"}
{"variant": "R46P", "abundance fitness": "-0.828 ± 0.41"}
{"variant": "R46Q", "abundance fitness": "-0.004 ± 0.12"}
{"variant": "R46S", "abundance fitness": "0.043 ± 0.06"}
{"variant": "R46T", "abundance fitness": "0.136 ± 0.084"}
{"variant": "R46V", "abundance fitness": "0.005 ± 0.039"}
{"variant": "R46W", "abundance fitness": "-0.106 ± 0.039"}
{"variant": "R46Y", "abundance fitness": "0.181 ± 0.072"}
{"variant": "T47A", "abundance fitness": "0.059 ± 0.065"}
{"variant": "T47C", "abundance fitness": "-0.083 ± 0.11"}
{"variant": "T47D", "abundance fitness": "0.145 ± 0.12"}
{"variant": "T47E", "abundance fitness": "0.177 ± 0.071"}
{"variant": "T47F", "abundance fitness": "-0.658 ± 0.2"}
{"variant": "T47I", "abundance fitness": "-0.094 ± 0.1"}
{"variant": "T47K", "abundance fitness": "-0.05 ± 0.058"}
{"variant": "T47M", "abundance fitness": "-0.18 ± 0.05"}
{"variant": "T47N", "abundance fitness": "-0.281 ± 0.38"}
{"variant": "T47P", "abundance fitness": "-0.67 ± 0.19"}
{"variant": "T47Q", "abundance fitness": "0.042 ± 0.12"}
{"variant": "T47R", "abundance fitness": "-0.204 ± 0.048"}
{"variant": "T47S", "abundance fitness": "-0.017 ± 0.079"}
{"variant": "T47V", "abundance fitness": "-0.157 ± 0.074"}
{"variant": "T47W", "abundance fitness": "-0.276 ± 0.065"}
{"variant": "T47Y", "abundance fitness": "0.015 ± 0.047"}
{"variant": "M48A", "abundance fitness": "-0.821 ± 0.17"}
{"variant": "M48C", "abundance fitness": "-0.912 ± 0.28"}
{"variant": "M48D", "abundance fitness": "-0.507 ± 0.28"}
{"variant": "M48E", "abundance fitness": "-0.674 ± 0.24"}
{"variant": "M48F", "abundance fitness": "-0.688 ± 0.34"}
{"variant": "M48G", "abundance fitness": "-1.02 ± 0.1"}
{"variant": "M48I", "abundance fitness": "-0.395 ± 0.092"}
{"variant": "M48K", "abundance fitness": "-0.978 ± 0.44"}
{"variant": "M48L", "abundance fitness": "-0.177 ± 0.048"}
{"variant": "M48N", "abundance fitness": "-0.376 ± 0.099"}
{"variant": "M48P", "abundance fitness": "-0.886 ± 0.069"}
{"variant": "M48Q", "abundance fitness": "-0.64 ± 0.15"}
{"variant": "M48R", "abundance fitness": "-1 ± 0.16"}
{"variant": "M48S", "abundance fitness": "-0.95 ± 0.2"}
{"variant": "M48T", "abundance fitness": "-0.635 ± 0.16"}
{"variant": "M48V", "abundance fitness": "-0.463 ± 0.077"}
{"variant": "M48W", "abundance fitness": "-0.359 ± 0.12"}
{"variant": "M48Y", "abundance fitness": "-0.696 ± 0.24"}
{"variant": "K49A", "abundance fitness": "-0.29 ± 0.046"}
{"variant": "K49C", "abundance fitness": "0.116 ± 0.086"}
{"variant": "K49D", "abundance fitness": "-0.507 ± 0.14"}
{"variant": "K49E", "abundance fitness": "-0.235 ± 0.054"}
{"variant": "K49F", "abundance fitness": "-0.535 ± 0.14"}
{"variant": "K49G", "abundance fitness": "-0.568 ± 0.073"}
{"variant": "K49H", "abundance fitness": "-0.462 ± 0.23"}
{"variant": "K49I", "abundance fitness": "-0.415 ± 0.16"}
{"variant": "K49L", "abundance fitness": "-0.302 ± 0.045"}
{"variant": "K49M", "abundance fitness": "-0.657 ± 0.19"}
{"variant": "K49N", "abundance fitness": "-0.597 ± 0.16"}
{"variant": "K49P", "abundance fitness": "-0.766 ± 0.2"}
{"variant": "K49Q", "abundance fitness": "-0.054 ± 0.16"}
{"variant": "K49R", "abundance fitness": "-0.358 ± 0.043"}
{"variant": "K49S", "abundance fitness": "-0.286 ± 0.056"}
{"variant": "K49T", "abundance fitness": "-0.142 ± 0.045"}
{"variant": "K49W", "abundance fitness": "-0.334 ± 0.22"}
{"variant": "R50A", "abundance fitness": "0.007 ± 0.052"}
{"variant": "R50E", "abundance fitness": "0.052 ± 0.099"}
{"variant": "R50F", "abundance fitness": "0.076 ± 0.094"}
{"variant": "R50H", "abundance fitness": "-0.553 ± 0.21"}
{"variant": "R50I", "abundance fitness": "0.286 ± 0.09"}
{"variant": "R50K", "abundance fitness": "0.178 ± 0.11"}
{"variant": "R50L", "abundance fitness": "-0.252 ± 0.084"}
{"variant": "R50M", "abundance fitness": "0.007 ± 0.16"}
{"variant": "R50N", "abundance fitness": "-0.054 ± 0.12"}
{"variant": "R50P", "abundance fitness": "-0.176 ± 0.11"}
{"variant": "R50Q", "abundance fitness": "-0.026 ± 0.043"}
{"variant": "R50S", "abundance fitness": "0.068 ± 0.056"}
{"variant": "R50T", "abundance fitness": "-0.016 ± 0.046"}
{"variant": "R50V", "abundance fitness": "-0.07 ± 0.074"}
{"variant": "R50W", "abundance fitness": "-0.253 ± 0.14"}
{"variant": "R50Y", "abundance fitness": "-0.456 ± 0.17"}
{"variant": "L51A", "abundance fitness": "-0.043 ± 0.08"}
{"variant": "L51C", "abundance fitness": "-0.171 ± 0.096"}
{"variant": "L51D", "abundance fitness": "-0.259 ± 0.13"}
{"variant": "L51E", "abundance fitness": "0.283 ± 0.075"}
{"variant": "L51F", "abundance fitness": "-0.355 ± 0.16"}
{"variant": "L51G", "abundance fitness": "-0.035 ± 0.052"}
{"variant": "L51H", "abundance fitness": "0.031 ± 0.4"}
{"variant": "L51I", "abundance fitness": "-0.241 ± 0.13"}
{"variant": "L51M", "abundance fitness": "-0.051 ± 0.065"}
{"variant": "L51P", "abundance fitness": "-0.394 ± 0.063"}
{"variant": "L51Q", "abundance fitness": "0.036 ± 0.064"}
{"variant": "L51S", "abundance fitness": "-0.025 ± 0.054"}
{"variant": "L51T", "abundance fitness": "0.101 ± 0.09"}
{"variant": "L51V", "abundance fitness": "0.006 ± 0.05"}
{"variant": "L51W", "abundance fitness": "-0.05 ± 0.073"}
{"variant": "L51Y", "abundance fitness": "-0.063 ± 0.12"}
{"variant": "G52A", "abundance fitness": "-0.304 ± 0.085"}
{"variant": "G52C", "abundance fitness": "-0.087 ± 0.061"}
